Here are results for 10 molecules from patent US20220064322A1.

The labels stand for the following.
B1: JB94H2L1 (antibody, human IgG1, kappa, V domains shown)
VH: QVQLVQSGAEVKKPGASVKVSCKASGYTFTSYWMHWVRQRPGQGLEWMGYINPSSGYTKSNQKFKDRVTLTADTSTSTAYMELSSLRSEDTAVYYCGRWLLSAWFAYWGQGTLVTVSS
VL: DIQMTQSPSSLSASVGDRVTITCKASQDINTYLSWFQQKPGKAPKSLIYRSNILVDGVPSRFSGSGSGQDFTLTISSLQPEDFAIYYCLQYDDFPYTFGQGTKLEIKR
B2: JB94H3L3 (antibody, human IgG1, kappa, V domains shown)
VH: B1 VH with V5Q, V20L, M48I, V68A
VL: B1 VL with A43S, F71Y
B3: 191C3A8B9 (antibody, mouse IgG1, kappa, V domains shown)
VH: QVQLKESGPGLVAPSQSLSITCTVSGFSLTNYGVHWVRQPPGKGLEWLGVIWAGGSTNYNSALMSRLSISKDNSKSQLFLKMNSLQADDTAMYYCARERGSSWGTMDYWGQGTSVTVSS
VL: QIVLTQSPAIMSASPGEKVTMTCSASSRVSYMHWYQQKSGTSPKRWIYDTSQLASGVPARFSGSGSGTSYSLTISSMEAEDAATYYCQQWSSNPYTFGGGTKLEMRR
B4: JB24H2L1 (antibody, human IgG1, kappa, V domains shown)
VH: QVQLVQSGAEVKKPGASVKMSCKASGYTFTDYNMHWVRQSPGKSLEWIGYIKPHNAGTTYNPKFEGRATLTVDTSASTAYMELSSLRSEDTAVYYCVRSDFLYWYFDVWGQGTTVTVSS
VL: DIQMTQSPSSLSASVGDRVTITCTASSSVSSSYLHWYQQKPGKAPKLLIYSTSNLASGVPSRFSGSGSGTDFTLTISSLQPEDFATYYCHQYHRSPLTFGAGTKLEIKR
B5: JB24H3L2 (antibody, human IgG1, kappa, V domains shown)
VH: B4 VH with R38K, P41H, S84R
VL: B4 VL with K43S, L48W, F72Y
B6: JB24H3L3 (antibody, human IgG1, kappa, V domains shown)
VH: B4 VH with R38K, P41H, S84R
VL: B4 VL with Q3V, K43S, A44S, L48W, S61G, F72Y
B7: JB24Chi (antibody, human IgG1, kappa, V domains shown)
VH: QVQLQQSGLELVKPGASVKMSCKASGYTFTDYNMHWVKQSHGKSLEWIGYIKPHNGGTTYNPKFEGKATLTVNKSSSTAYMELRSLTSEDSAVYYCVRCDFLYWYFDVWGTGTTVTVSS
VL: DIVMTQSPAIMSASLGERVTMTCTASSSVSSSYLHWYQQKPGSSPKLWIYSTSNLASGVPGRFSGSGSGTSYSLTISSMEAEDAATYYCHQYHRSPLTFGAGTKLEMKR
B8: 66-hIgG2 (antibody)
heavy: QVHLQQSGAELAKPGASVNLSCKASGYAFTSYWMHWVKQRPGQGLEWIGYINPSSGLAKYNQKFKDKATLTTDKSSNTAYMQLSSLTYDDSAVYYCGRWLLSAWFAYWGQGTLVTVSAASTKGPSVFPLAPCSRSTSESTAALGCLVKDYFPEPVTVSWNSGALTSGVHTFPAVLQSSGLYSLSSVVTVPSSNFGTQTYTCNVDHKPSNTKVDKTVERKCCVECPPCPAPPVAGPSVFLFPPKPKDTLMISRTPEVTCVVVDVSHEDPEVQFNWYVDGVEVHNAKTKPREEQFNSTFRVVSVLTVVHQDWLNGKEYKCKVSNKGLPAPIEKTISKTKGQPREPQVYTLPPSREEMTKNQVSLTCLVKGFYPSDIAVEWESNGQPENNYKTTPPMLDSDGSFFLYSKLTVDKSRWQQGNVFSCSVMHEALHNHYTQKSLSLSPGK
light: DIKMTQSPSSIYASLGERVTITCKASQGINTYLSWFQQKPGKSPKTLIYRANILVDGVPSRFSGSGSGQDYSLTINSLEYEDMGIYYCLQYDEFPYTFGGGTKLEIKRTVAAPSVFIFPPSDEQLKSGTASVVCLLNNFYPREAKVQWKVDNALQSGNSQESVTEQDSKDSTYSLSSTLTLSKADYEKHKVYACEVTHQGLSSPVTKSFNRGEC
B9: 94-hIgG2 (antibody)
heavy: B8 heavy with H3Q, N19K, A28T, L57Y, A58T, Y60S, T72A, N77S, D89E
light: B8 light with K3R, I11M, G28D, T46S, A51S, N76S, E93D
B10: 94H1L3 hIgG2 (antibody)
heavy: QVQLVQSGAEVKKPGASVKVSCKASGYTFTSYWMHWVRQAPGQGLEWMGYINPSSGYTKSNQKFKDRVTMTADTSTSTAYMELSSLRSEDTAVYYCGRWLLSAWFAYWGQGTLVTVSSASTKGPSVFPLAPCSRSTSESTAALGCLVKDYFPEPVTVSWNSGALTSGVHTFPAVLQSSGLYSLSSVVTVPSSNFGTQTYTCNVDHKPSNTKVDKTVERKCCVECPPCPAPPVAGPSVFLFPPKPKDTLMISRTPEVTCVVVDVSHEDPEVQFNWYVDGVEVHNAKTKPREEQFNSTFRVVSVLTVVHQDWLNGKEYKCKVSNKGLPAPIEKTISKTKGQPREPQVYTLPPSREEMTKNQVSLTCLVKGFYPSDIAVEWESNGQPENNYKTTPPMLDSDGSFFLYSKLTVDKSRWQQGNVFSCSVMHEALHNHYTQKSLSLSPGK
light: DIQMTQSPSSLSASVGDRVTITCKASQDINTYLSWFQQKPGKSPKSLIYRSNILVDGVPSRFSGSGSGQDYTLTISSLQPEDFAIYYCLQYDDFPYTFGQGTKLEIKRTVAAPSVFIFPPSDEQLKSGTASVVCLLNNFYPREAKVQWKVDNALQSGNSQESVTEQDSKDSTYSLSSTLTLSKADYEKHKVYACEVTHQGLSSPVTKSFNRGEC

Positions count from the first letter of the chain named.

T1 sequence (P21589 27-549): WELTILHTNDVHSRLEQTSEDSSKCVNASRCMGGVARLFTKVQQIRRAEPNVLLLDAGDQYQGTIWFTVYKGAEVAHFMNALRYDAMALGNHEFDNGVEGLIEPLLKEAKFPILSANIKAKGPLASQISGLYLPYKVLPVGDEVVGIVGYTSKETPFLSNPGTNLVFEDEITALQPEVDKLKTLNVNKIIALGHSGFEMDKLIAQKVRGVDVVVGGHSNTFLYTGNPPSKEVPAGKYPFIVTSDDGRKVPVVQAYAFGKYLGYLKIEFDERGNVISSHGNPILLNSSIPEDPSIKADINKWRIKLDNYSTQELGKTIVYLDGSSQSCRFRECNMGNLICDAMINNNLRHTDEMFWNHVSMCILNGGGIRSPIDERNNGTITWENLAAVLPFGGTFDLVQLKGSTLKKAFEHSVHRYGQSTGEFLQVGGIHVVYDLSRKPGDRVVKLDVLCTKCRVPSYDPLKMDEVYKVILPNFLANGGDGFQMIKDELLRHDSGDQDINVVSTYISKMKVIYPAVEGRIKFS

The target in the first assay is human CD73 on the cell surface (293T/17-huCD73 cells) (human) (UniProt P21589). The assay can be described thus: cell-based or functional assay.
Chain of human CD73 on the cell surface (293T/17-huCD73 cells) (human) (P21589 27-549): as above
The molecule B1 registered an IC50, blockade of 5'exonuclease activity of U87-MG cells of 0.214 nM and an IC50, blockade of 5'exonuclease activity on 293T/17-human CD73 cells of 0.005 nM.
The like results for B2 were, in that order, 0.456 nM and 0.004 nM.
In the case of B3, the IC50, blockade of 5'exonuclease activity on 293T/17-HuCD73 cells was 0.009 nM.
With B4, the IC50, blockade of 5'exonuclease activity of U87-MG cells stood at 0.474 nM and the IC50, blockade of 5'exonuclease activity on 293T/17-human CD73 cells amounted to 0.042 nM.
Molecule B5 displayed an IC50, blockade of 5'exonuclease activity of U87-MG cells of 0.27 nM and an IC50, blockade of 5'exonuclease activity on 293T/17-human CD73 cells of 0.014 nM.
On to B6, for which the IC50, blockade of 5'exonuclease activity of U87-MG cells stood at 0.12 nM and the IC50, blockade of 5'exonuclease activity on 293T/17-human CD73 cells was 0.016 nM.
As to B7, the EC50, release of IFN-γ from CD4+ T cells (ELISA of supernatant) is 0.0132 nM; the EC50, reversal of AMP-mediated human CD4+ T cell proliferation inhibition was determined as 0.007 nM; the IC50, antibody-mediated internalization of CD73 on MDA-MB-231 cells (Fab-ZAP saporin conjugate) is 0.012 nM; the IC50, blockade of 5'exonuclease activity of U87-MG cells came out at 0.053 nM. The molecule also registered an IC50, blockade of 5'exonuclease activity on 293T/17-HuCD73 cells of 0.031 nM; an IC50, blockade of 5'exonuclease activity on 293T/17-human CD73 cells of 0.006 nM; an IC50, blockade of CD73 enzyme activity of CD4+ T cells (CellTiter-Glo) of 0.009 nM.

For a further assay the target is unchanged. The assay can be described thus: cell-based or functional assay. The source holds these as a separate data set.
For B1, the EC50, reversal of AMP-mediated human CD4+ T cell proliferation inhibition is 0.032 nM.
Turning to B2, the EC50, reversal of AMP-mediated human CD4+ T cell proliferation inhibition came to 0.003 nM.
Still for that read-out and setting: with B4 the figure was 0.032 nM.
As for B5, the EC50, reversal of AMP-mediated human CD4+ T cell proliferation inhibition was 0.022 nM.
Turning to B6, the EC50, reversal of AMP-mediated human CD4+ T cell proliferation inhibition amounted to 0.068 nM.
Turning to B7, the EC50, reversal of AMP-mediated human CD4+ T cell proliferation inhibition worked out at 0.003 nM.

A further assay has the same target. The assay can be described thus: cell-based or functional assay. The source holds these as a separate data set.
As for B1, the EC50, release of IFN-γ from CD4+ T cells (ELISA of supernatant) was found to be 0.002 nM.
Still for that read-out and setting: with B2 the figure was 0.003 nM; with B4, 0.002 nM.
As for B5, the EC50, release of IFN-γ from CD4+ T cells (ELISA of supernatant) is 0.015 nM.
The same measure, in the same setting: for B6 the value was 0.345 nM.
On the same count and under the same terms, with B7 the figure was 0.006 nM.

Another assay shares this target. The assay can be described thus: flow cytometry on 293T/17-huCD73 cells. In general terms: A flow cytometer gives signals particle by particle.
For B3, the EC50 (usually the concentration needed to bring the measured effect to its halfway point) turned out to be 0.828 nM.
On the same count and under the same terms, with B7 the figure was 1.14 nM.

A further assay has as its target T1, human CD73 on the cell surface (293T/17-huCD73 cells) (human), P21589. In words: cell-based or functional assay.
The molecule B8 returned an IC50, antibody-mediated internalization of CD73 on MDA-MB-231 cells (Fab-ZAP saporin conjugate) of 0.022 nM.
On the same count and under the same terms, for B9 the value was 0.019 nM.
B10: the IC50, blockade of 5'exonuclease activity on 293T/17-human CD73 cells worked out at 0.007 nM.

A further assay concerns the target T1, human CD73 on the cell surface …. In words: cell-based or functional assay. The source holds these as a separate data set.
As to B10, the EC50, reversal of AMP-mediated human CD4+ T cell proliferation inhibition came to 0.012 nM.

The target is the same in another assay. The assay can be described thus: cell-based or functional assay. The source holds these as a separate data set.
As to B10, the EC50, release of IFN-γ from CD4+ T cells (ELISA of supernatant) came to 0.001 nM.

A further assay has as its target human CD73 on the cell surface (293T/17-huCD73 cells) (human) (UniProt P21589). In words: flow cytometry on 293T/17-human CD73 cells.
For the molecule B1, the EC50 turned out to be 9.15 nM.
B2: the EC50 worked out at 15.3 nM.
Turning to B4, the EC50 amounted to 2.4 nM.
Molecule B5 had an EC50 of 3.01 nM.
B6 showed an EC50 of 7.41 nM.
For B7, the EC50 came out at 5.33 nM.

The target is the same in another assay. In words: flow cytometry on 293T/17-huCD73 cells, curve fit.
B3 gave a Bottom (fluorescence intensity) of 2.67 and a Top (fluorescence intensity) of 105.
B7 registered a Bottom (fluorescence intensity) of -1.47 and a Top (fluorescence intensity) of 42.

A further assay shares this target. In words: flow cytometry on 293T/17-human CD73 cells, curve fit.
Molecule B1 displayed a Bottom of 0.604 fluorescence and a Top of 223 fluorescence.
In turn, B2 displayed a Bottom of 1.78 fluorescence and a Top of 239 fluorescence.
The like results for B4 were, in that order, 1.64 fluorescence and 82.2 fluorescence.
In turn, B5 came in with a Bottom of 1.78 fluorescence and a Top of 91.7 fluorescence.
On to B6, for which the Bottom worked out at 0.131 fluorescence and the Top was determined as 120 fluorescence.
For B7, in that order: 3.72 fluorescence and 196 fluorescence.

The next assay shares this target. In words: flow cytometry on 293T/17-huCD73 cells, fluorescently labelled detection antibody, MFI.
Regarding B3, the EC50 (read off the curve) (as a rule, the concentration giving half of the maximal effect) was determined as 1 nM.

For another assay the target is unchanged. In words: flow cytometry on 293T/17 cells expressing huCD73, APC-labelled goat anti-human antibody, MFI.
The molecule B4 showed a concentration giving a half-maximal response (EC50 (read off the curve)) of 2 nM.
Still for that read-out and setting: for B5 the value was 3 nM; for B7, 6 nM.
